Assay results as given in patent publication US20140170142A1 (AstraZeneca / MedImmune, published 2014).
Where a chain is given by its changes, count along the chain named. Names may count otherwise.

T1: mouse FcRn (mouse, UniProt Q61559 22-297; P01887 21-119, limits assumed)
T1 construct: also called mFcRn
T1 sequence (looked up): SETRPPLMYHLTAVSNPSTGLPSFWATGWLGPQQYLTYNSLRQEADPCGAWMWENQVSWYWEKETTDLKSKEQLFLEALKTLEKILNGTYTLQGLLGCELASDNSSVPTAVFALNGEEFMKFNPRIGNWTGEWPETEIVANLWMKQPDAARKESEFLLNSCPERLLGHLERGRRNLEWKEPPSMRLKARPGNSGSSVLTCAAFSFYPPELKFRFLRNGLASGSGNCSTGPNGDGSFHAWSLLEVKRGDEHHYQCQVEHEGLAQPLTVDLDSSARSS
T1 sequence (b2m, looked up): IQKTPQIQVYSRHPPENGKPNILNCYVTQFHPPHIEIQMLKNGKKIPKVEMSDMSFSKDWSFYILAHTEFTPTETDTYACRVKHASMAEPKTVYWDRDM

B1: ABD-Fc: fusion of unmodified ABD and unmodified Fc (Fc fusion)
chain: LAEAKVLANRELDKYGVSDYYKNLINNAKTVEGVKALIDEILAALPGAEPRGPTIKPCPPCKCPAPNLLGGPSVFIFPPKIKDVLMISLSPIVTCVVVDVSEDDPDVQISWFVNNVEVHTAQTQTHREDYNSTLRVVSALPIQHQDWMSGKEFKCKVNNKDLPAPIERTISKPKGSVRAPQVYVLPPPEEEMTKKQVTLTCMVTDFMPEDIYVEWTNNGKTELNYKNTEPVLDSDGSYFMYSKLRVEKKNWVERNSYSCSVVHEGLHNHHTTKSFSRTPGKGGGGSEQKLISEEDLGGGGSHHHHHH
notes: also called wild type ABD-Fc; ABD-Fc parental construct
B2: ABD-Fc (His 310): knockout substitution in Fc region of Igg2A H310A (Fc fusion)
chain: B1 chain with H144A
notes: also called ABD-(His310TM)-Fc
B3: ABD-TM-Fc: triple knockout mutations of ABD residues S18A; T20A and Y21A (Fc fusion)
chain: B1 chain with S18A, Y20A, K22A
notes: T20A/Y20A; Y21A)

Key:
mouse serum albumin [1] = target: T2, mouse serum albumin (mouse, UniProt P07724 25-608); experiment: SPR (BIAcore 3000), CM5 chip, PBS pH 7.5
T2 construct: also called MSA; mouse albumin
Description: (§1) The interaction between different ABD-Fc variants and MSA (mouse serum albumin), HSA (human serum albumin) and mFcRn were monitored by surface plasmon resonance detection using BIAcore 3000 instrument. (GE Healthcare). First, ABD-Fc variants were coupled to dextran matrix of CM5 sensor chip using an Amine Coupling Kit at a surface density of 1000-2000 RU according to manufacturer's instructions. Human and mouse albumin as well mouse FcRn were flown over in a test-bind experiments at the concentrations ranging from 0.1-10 μM at a flow rate of 5 μl/min. Dilution and binding experiments were carried out in PBS pH7.5; 150 mM NaCl; 0.005% Tween for albumin binding and 50 mM NaPhosphate pH6.0; 150 mM NaCl; 0.005% Tween for mouse FcRn. Subsequently, the format of the Biacore experiments were flipped where mouse and human albumin as well as mouse FcRn were coupled to a CM5 chip using Amine Coupling Kit at surface densities ranging from 500-1500 RU. The ABD-Fc variants were flown over at three different concentrations 0.5; 1 and 10 μM. The latter format was more successful due to higher signal and self-consistency.

human serum albumin [2] = target: T3, human serum albumin (human, UniProt P02768 25-609); experiment: SPR (BIAcore 3000), CM5 chip, PBS pH 7.5
T3 construct: also called HSA; human albumin
T3 sequence (P02768 25-609 limits assumed): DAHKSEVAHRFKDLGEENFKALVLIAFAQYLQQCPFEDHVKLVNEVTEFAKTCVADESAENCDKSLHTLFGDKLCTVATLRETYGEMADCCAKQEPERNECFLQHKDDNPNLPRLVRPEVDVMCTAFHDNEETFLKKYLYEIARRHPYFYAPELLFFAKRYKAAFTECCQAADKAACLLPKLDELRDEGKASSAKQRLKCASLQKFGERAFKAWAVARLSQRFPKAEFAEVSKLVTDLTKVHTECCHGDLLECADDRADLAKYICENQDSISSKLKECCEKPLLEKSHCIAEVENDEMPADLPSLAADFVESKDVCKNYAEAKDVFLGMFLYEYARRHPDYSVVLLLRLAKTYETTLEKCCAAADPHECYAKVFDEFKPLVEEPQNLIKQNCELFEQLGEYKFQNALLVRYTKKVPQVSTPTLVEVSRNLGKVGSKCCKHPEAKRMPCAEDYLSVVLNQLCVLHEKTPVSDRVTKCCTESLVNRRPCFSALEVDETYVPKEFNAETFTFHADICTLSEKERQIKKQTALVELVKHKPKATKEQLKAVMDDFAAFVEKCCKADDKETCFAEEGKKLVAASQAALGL
Description: as §1

mouse FcRn = target: T1, mouse FcRn; experiment: SPR (BIAcore 3000), CM5 chip, pH 6.0, three concentrations of injectant
Description: as §1

human serum albumin [3] = target: T3, human serum albumin; experiment: SPR (BIAcore 3000), CM5 chip, three concentrations of injectant
Description: as §1

mouse serum albumin [4] = target: T2, mouse serum albumin; experiment: as above
Description: as §1

Row | Binder | binding result (mouse serum albumin [1]) | binding result (human serum albumin [2]) | binding result (mouse FcRn) | binding result (human serum albumin [3]) | binding result (mouse serum albumin [4])
1 | B1 | binds |  |  |  | 
2 | B2 | binds | binds | no binding (tested: 10 µM) |  | 
3 | B3 |  |  |  | no binding (tested: 10 µM) | no binding (tested: 10 µM)
